Patent US20060122105A1, “Method of improing the growth performance of an animal” (priority 2001, published 2006)

Assays:
Assay type in all cases: in vivo
[1] = Growth performance of pigs treated with IL-1ra or saline at zero, reduced and normal antibiotic medication (Example 2); details: for total group weight at the end of the weaner phase: FIG. 10
Procedure: Recombinant porcine IL-1ra was expressed in E. coli and purified using a polyhis tag system. IL-1ra was tested for biological activity in a bioassay prior to the start of the experiment.
The experiment was undertaken in a commercial environment where the pigs were weaned at 28 days of age. All injections were 1 ml. There were 16 pigs per treatment, 8 males and 8 females per treatment. The mean weight of treatment groups were similar at the start of the experiment.
A. Saline injection, 1 ml IM neck muscle.
B. 100 ug IL-1ra injection, 1 ml IM neck muscle. Injections were administered twice weekly during the weaner stage, and weekly throughout the grower and finisher stages.
Pigs were weaned and weighed at the commencement of the experiment (D0, W0). Weights were recorded weekly throughout the weaner phase (W0-W6), during the grower phase (W9), at the end of the grower phase (W13), during the finisher phase (W 16) and at the end of the finisher phase prior to slaughter at W19. Blood samples were collected at the start of the experiment and at the end of the weaner phase, grower phase and finisher phase. Haematology and immunological analyses were performed. At slaughter, carcass characteristics including P2 backfat measurements and dressed carcass weight were noted.

[2] = tested on: Brachyspira (Serpulina) hyodysenteriae; assay: Swine dysentery challenge of weaner pigs, prophylactic treatment (Example 4); details: for reduction in spirochaete culture scores at post-mortem compared to saline: FIG. 25
Procedure: Male pigs with a mean starting weight of 6.5 kg, were allocated to treatment groups consisting of eight pigs. Pigs were housed in group pens, with each pen containing a replicate from each of the treatment groups. One group of 8 pigs was housed in a separate room and left uninfected to act as untreated controls. Pigs were provided with pelleted feed and water ad libitum.
Prior to swine dysentery challenge, pigs were treated with 200 μg recombinant IL-1ra or 1 ml saline via intramuscular injection. Lincocin was delivered as a 2 ml intramuscular injection according to the manufacturer's instructions. Cytokines, antibiotics and challenges were performed at intervals described in the experimental protocol outlined in Table 5. Pigs were infected with Brachyspira hyodysenteriae at day 0, day 1 and day 2, given as an oral bolus of 120 ml of spirochaete culture in log phase of growth, containing approximately 10^8 cells.
Faecal swabs and blood samples were taken from each pig at intervals described in Table 5. Faecal swabs were cultured for the presence of spirochaetes. Blood samples were assayed for immunological parameters as described in Example 3 above. Pigs were weighed at weekly intervals throughout the experiment, which was terminated by euthanasia on days 19 and 20 after the initial challenge. At post-mortem, swabs from areas of the hindgut were cultured for the presence of spirochaetes, and the gross pathological condition of the gastro-intestinal tissue noted.

[3] = Growth performance of weaner pigs treated with IL-1ra or saline, with or without in-feed antibiotics (Example 1); details: for warm carcass weight: FIG. 6; for rate of gain over the grower phase: D79 and D93, FIG. 3
Procedure: Recombinant porcine. IL-1ra was expressed in E. coli and purified using a polyhis tag system. IL-1ra was tested for biological activity in a bioassay prior to the start of the experiment.
Male weaner pigs (28 days old) were allocated to treatment groups of 20 as described in Table 1. The mean weight for each treatment group was equal, with equal variance. Pigs were housed in group pens of 20, with 2 pens provided with medicated water and feed as per current industry standards, while 2 pens were given unmedicated water and feed. Pigs were injected twice weekly with recombinant IL-1ra or saline (control), in a volume of 1 ml, for the duration of the weaner phase (42 days), as described in Table 2.
Upon commencement of the weaner phase (day 0) and upon completion of the weaner phase (day 42), pigs were […]

B1: IL-1ra: Recombinant porcine IL-1ra expressed in E. coli and purified using a polyhis tag system (protein, UniProt Q29056 26-177, looked up)
Interleukin-1 receptor …: HPLGKRPCRMQAFRIWDVNQKTFYLRNNQLVAGYLQGPNTKLEEKIDVVPVEPHFVFLGIHGGKLCLSCVKSGDEMKLQLDAVNITDLRKNSEQDKRFTFIRSDSGPTTSFESAACPGWFLCTALEADQPVGLTNTPKAAVKVTKFYFQQDQ
modifications: polyhistidine tag
notes: Recombinant porcine IL-1ra expressed in E. coli and purified using a polyhis tag system
With B1 as the molecule, how does the “weight at the end of the weaner phase” value ([1]; 100 ug IL-1ra, all 3 levels of medication, FIG. 8) read?
Its value is “weighed more than their saline treated counterparts”.

And the “P2 backfat levels at slaughter” value ([1]; IL-1ra in absence of antibiotics, FIG. 13)?
Its value is “comparable to those of pigs treated with saline and provided full antibiotic medication”.

And the “finishing weight, more than saline treated pigs” value ([1]; absence of antibiotic medication, FIG. 12)?
Its value is 16.7%.

What about the “number of pigs experiencing weight loss or mortality over the weaner period” value ([1]; absence of antibiotics, FIG. 9) of the same molecule?
Its value is 2 out of 16 pigs.

What about the “total group weight at the end of the weaner phase” value (shortened to “total group weight at the end”) ([1]; full medication) of the same molecule?
Its value is 451 kg.

And the “total group weight at the end” value ([1]; no medication)?
The value was 369 kg.

What about the “increase in productivity (group weight vs saline)” value (shortened to “increase in productivity”) ([1]; normal antibiotic administration) of the same molecule?
The value was 11.1%.

And the “increase in productivity” value ([1]; reduced antibiotic administration)?
Its value is 20.4%.

What about the “total group weight at the end” value ([1]; reduced medication) of the same molecule?
Its value is 390 kg.

What about the “weight at the end of the grower phase” value ([1]; regardless of medication level, FIG. 11) of the same molecule?
The value was “heavier than all the saline treatment”.

What about the “deleterious effects of continuous administration” value ([1]; twice weekly in weaner stage, weekly in grower and finisher stages) of the same molecule?
Its value is “did not have any deleterious effects”.

What about the “increase in productivity” value ([1]; zero antibiotic administration) of the same molecule?
The value was 26.4%.

What about the “reduction in spirochaete culture scores at post-mortem compared to saline” value (“reduction in spirochaete culture scores” below) ([2]; anterior colon) of the same molecule?
Its value is 15.8%.

What about the “reduction in spirochaete culture scores” value ([2]; faecal spirochaetes) of the same molecule?
The value was 42.1%.

What about the “reduction in spirochaete culture scores” value ([2]; posterior colon) of the same molecule?
The value was 47.1%.

And the “net reduction in spirochaetes throughout the GIT” value ([2]; vs saline)?
The value was 27%.

And the “faecal condition at post-mortem (clinical signs)” value ([2]; vs saline treated controls, FIG. 26)?
Its value is “fewer signs of dysentery-affected faeces”.

What about the “production of the pro-inflammatory cytokines TNF, IL-8 and IL-1 (mRNA in peripheral blood)” value ([2]; vs saline treated controls, FIGS. 27, 28 and 29) of the same molecule?
Its value is “reduce the production”.

And the “rate of gain over weeks 5 and 6 of the weaner phase” value ([3]; 200 μg IL-1ra twice weekly, both medicated and non-medicated feeding regimes, FIG. 2)?
Its value is “outperforming saline treated pigs”.

What about the “rate of gain over the first 4 weeks of the weaner phase” value ([3]; 200 μg IL-1ra twice weekly, vs saline controls, FIG. 1) of the same molecule?
The value was “performed as well as saline controls”.

What about the warm carcass weight ([3]; IL-1ra in absence of antibiotics) of the same molecule?
Its warm carcass weight is “equal to that obtained by pigs fed antibiotics and treated with saline”.

And the warm carcass weight ([3]; IL-1ra in presence of antibiotics)?
The warm carcass weight was “greater than that of their saline-treated counterparts”.

And the “average weight at slaughter, heavier than pigs treated with saline and provided with in-feed antibiotics” value ([3]; IL-1ra in weaner phase in absence of in-feed antibiotics, FIG. 5)?
Its value is 0.7 kg.

What about the “rate of gain over the grower phase” value ([3]; IL-1ra in weaner phase with medicated diet) of the same molecule?
Its value is “highest rate of gain”.

What about the “rate of gain over the grower phase” value ([3]; IL-1ra in weaner phase without in-feed medication) of the same molecule?
Its value is “grow as quickly as pigs treated with saline and provided with in-feed medication”.

And the “rate of gain over the finisher phase” value ([3]; IL-1ra in weaner phase without medicated diet, FIG. 4)?
Its value is “highest rate of gain of all groups”.

What about the “feed conversion ratio during the finisher phase” value ([3]; day 93-day 133, treatment during weaner phase, IL-1ra in absence of in-feed antibiotics, FIG. 7) of the same molecule?
Its value is 2.49.
